Our source for the Kd values is patent US20250019430A1 (published 2025).

Common to all, as to assay: Octet BLI
The target of one test is RETN-His (#S0995).
The next test has as its target T1, RETN-flag-His (human, UniProt Q9HD89 19-108).
T1 chain: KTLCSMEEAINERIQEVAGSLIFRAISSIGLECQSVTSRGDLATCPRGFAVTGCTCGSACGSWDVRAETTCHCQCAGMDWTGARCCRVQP

Another test has as its target RETN-C-His (#S0995).

B1: 5A2-LS-2E10 (antibody, V domains shown)
VH: QVQLVQSGAEGRKPGSSVKVSCKVSGDTFSSYAISWVRQAPGQGLEWMGGIIPIFGAADYAQKFKGRVTISADESTSTAYMELSSLRSEDTAVYYCAKGPDYYGSFDPWGQGTLITVSS
VL: DIQMTQSPSSLSASVGDRVTITCRTSQTITNYLNWYQQKPGRAPKLLIFDASNLETGVPSRFSGSGSGTDFTLTISSLQPEDFATYFCQQSYNPGYTFGQGTKLEIKR
In general, Kd refers to the concentration at which binding is half-saturated. A high value points to a looser complex. Regarding B1, binding in the test with RETN-His (#S0995) was put at a Kd of 0.419 nM.

B2: RETN-5A2 (antibody, V domains shown)
VH: B1 VH
VL: DIQMTQSPSFLSASVGDRVTITCRASQYIGTYLAWYQQQPGKAPKLLIYGASILQNGVPSRFSGSASGTEFTLTISSLQPEDFATYYCQQADSFPLTFGGGTKVDIKR
For the molecule B2, in the test with RETN-flag-His, the Kd is 2.1 nM.

B3: 5A2-LS-1F11 (antibody, V domains shown)
VH: B1 VH
VL: not shown
For the molecule B3, the affinity in the test with RETN-His (#S0995), expressed as Kd, was 0.958 nM.

B4: 5A2-LS-2B02 (antibody, V domains shown)
VH: B1 VH
VL: DIQMTQSPGTLSLSAGERATLSCRASQSVRGSYLAWYQQKPGQAPRLLIYGTSSRAPGIPDRFSGSGSGTDFTLTISSLEPEDFAVYYCQQRGDWLYTFGQGTKVEIKR
With B4, the Kd with RETN-His (#S0995) was 0.452 nM.

B5: 5A2-LS-2H10 (antibody, V domains shown)
VH: B1 VH
VL: NFMLTQPASVSGSPGQSITISCTGSSSDVGGYNYVTWYQQHPGKAPQLIIYDVTKRPSGVSNRFSGSKSGNSASLTISGLQAEDEADYYCSSYSSSTFYVFGTGTKVTVLR
The molecule B5 gave a Kd with RETN-His (#S0995) of 0.538 nM.

B6: 5A2-LS-2F11 (antibody, V domains shown)
VH: B1 VH
VL: DIQMTQSPSSLSASVGDRVTITCRASQSIGTYLNWYQQKPGKAPKLLIYDASSLEDGVPSRFSGSGSGTDFTLTISSLQPEDSATYYCQQSYTMPLYTFGQGTKLEIKR
For the molecule B6, the Kd with RETN-His (#S0995) came to 0.443 nM.

B7: 5A2-LS-2D07 (antibody, V domains shown)
VH: B1 VH
VL: QSALTQPASVSGSPGQSVTISCTGTSSDIGRYNRVSWYQHHPGKAPKLIIYDVSNRPSGVSNRFSGSKSGNTASLTISGLQAGDESDYYCSAYTRSSTWVFGGGTKLTVLR
In turn, B7 gave a dissociation constant (Kd) with RETN-His (#S0995) of 0.49 nM.

B8: 5A2-LS-2G03 (antibody, V domains shown)
VH: B1 VH
VL: DIQMTQSPSSLSASVGDRVTITCQASQHVSSYLNWYQQKPGKAPKLLIYAASNLQSGVPSRFSGSGSGTDFTLTISSLQPDDFATYYCQQYDSYSSVYTFGPGTKLDIKR
B8 gave a Kd in the test with RETN-His (#S0995) of 0.311 nM.

B9: 5A2 (antibody, V domains shown)
VH: B1 VH
VL: B2 VL
As for B9, the figures for the Kd with RETN-C-His (#S0995) and with RETN-His (#S0995) were 2.14 nM and 1.17 nM, respectively.
